Target: Growth Factor Receptor-bound 2 (GRB2), endogenous in HEK cells (human (endogenous in HEK)) (UniProt P62993)
Assay: co-IP

Growth Factor Receptor-bound 2 (GRB2), endogenous in HEK cells (human (endogenous in HEK)), sequence (P62993 whole entry): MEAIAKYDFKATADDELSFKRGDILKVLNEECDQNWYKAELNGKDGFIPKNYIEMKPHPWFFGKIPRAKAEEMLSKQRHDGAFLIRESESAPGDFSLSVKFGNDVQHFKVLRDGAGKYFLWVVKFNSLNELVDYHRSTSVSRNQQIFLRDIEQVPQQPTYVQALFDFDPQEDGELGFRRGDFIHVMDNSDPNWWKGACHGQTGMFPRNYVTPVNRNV

Q: How did the densitometry ratio SWELL1^Δ91/+35/GRB2 in the GRB2 immunoprecipitate turn out when “SWELL1^Δ91/+35 mutant, transiently expressed in HEK cells (natural protein)” was run?
A: 0.07
